Test [1] concerns the target T1, Recombinant human GhR-Fc protein (Homo sapiens, UniProt P10912).
T1 construct: purchased R&D Systems
The experiment in a line: Binding activity of hGhR binding peptide by surface plasmon resonance (SPR), Biacore T200, single-cycle kinetics. The conditions noted are these: human GhR-Fc immobilized on CM5 chip, KD calculated from ka and kd. The method, then:
(§1) SPR assay was performed using Biacore T200 (cytiva: Former GE Healthcare). After the equilibration of Series S Sensor Chip CM5 (produced by cytiva: Former GE Healthcare) with Running Buffer (HBS-EP with 1% (v/v) DMSO), an EDC/NHS mixture was injected at a flow rate of 10 μL/min for 7 minutes to thereby activate the functional groups on sensor chip. Recombinant human GhR-Fc protein (R&D Systems) in 10 mM Acetate (pH4.0) was injected immobilized to at a flow rate of 5 μL/min. It took 7 minutes to immobilize the GhR on the substrate surfaces of the sensor chip. Then Ethanolamine was injected at a flow rate of 10 μL/min for 7 minutes. 1M Ethanolamine (aq.) was injected at a flow rate of 10 μL/min for 420 seconds for capping.
(§2) Using these Peptide Samples, kinetics of peptides against human GhR-Fc protein were measured. The method adopted for sample measurement was a single-cycle kinetics method. The analysis was conducted using the evaluation software provided with Biacore T200. A DMSO correction curve obtained by solvent correction measurements was applied for the analysis. Kinetics fitting was done on the difference data obtained by subtracting the baseline data from sample measurement data. KD values were calculated based on the association rate constant (ka) and dissociation rate constant (kd).
Furthermore, “obs. m/z [M+2H]2+” indicates the ESI-MS(+) observed value. Unless otherwise specified, this is bivalent ([M+2H]^2+).

Test [2] addresses T2, Recombinant human GhR-Fc protein (R&D Systems) (human, UniProt P10912 19-264, limits assumed).
T2 construct: Bought from R&D Systems; Amine-coupled to a CM5 chip in the SPR assay; also called hGhR; recombinant human GhR protein fused to Fc portion of human IgG; not shown: Fc portion of human IgG
T2 sequence (looked up): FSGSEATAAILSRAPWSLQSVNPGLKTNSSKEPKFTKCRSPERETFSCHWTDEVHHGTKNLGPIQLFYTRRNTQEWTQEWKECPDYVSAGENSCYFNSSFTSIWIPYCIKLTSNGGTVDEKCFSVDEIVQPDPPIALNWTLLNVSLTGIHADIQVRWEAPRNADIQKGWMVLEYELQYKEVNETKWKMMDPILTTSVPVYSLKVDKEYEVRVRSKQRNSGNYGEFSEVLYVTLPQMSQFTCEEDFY
The experiment in a line: SPR, Biacore T200, single-cycle kinetics, GhR-Fc immobilised on CM5. The method, then: as §1, with “capping. 10 mM Peptides in DMSO were diluted to obtain 10 uM with Running Buffer, and prepared 100 nM, 50 nM, 25 nM, 10 nM, 5 nM of each peptide solutions (Peptide Samples).” for “capping.”
as §2

Starred links: 1 amine or outer side, 2 acyl side, 3 side chain; linkers in the order of their positions; H or OH if unused. Positions of bridges follow the written chain, without caps; N, C: chain ends. Non-standard residues stand in square brackets, D forms with d. Residues, ends and D or L forms follow the SMILES beside them. Groups on a side chain read outwards from the residue. *: point of attachment. KCOpipzaa = N6-(4-(carboxymethyl)piperazine-1-carbonyl)-L-lysine, O=C(NCCCC[C@H](N[*:1])C(=O)[*:2])N1CCN(CC(=O)[*:3])CC1; A4pipaa = 4-amino-1-(carboxymethyl)piperidine-4-carboxylic acid, O=C(C1(N[*:1])CCN(CC(=O)[*:3])CC1)[*:2]; X10 = NC(=O)[C@H](CCCCN*)NC(=O)CC[C@H](NC(=O)CC[C@H](NC(=O)CCCc1ccc(I)cc1)C(=O)O)C(=O)O; Trp(1-CH2CO) = O=C([C@H](Cc1cn(CC(=O)[*:3])c2ccccc12)N[*:1])[*:2]; Trp(5-OMe) = COc1ccc2[nH]cc(C[C@H](N)C(=O)O)c2c1; Butanoyl(4-(4-I-phenyl)) = O=C(CCCc1ccc(I)cc1)*; Trp(5-OH) = N[C@@H](Cc1c[nH]c2ccc(O)cc12)C(=O)O; Phe(4-COOH) = N[C@@H](Cc1ccc(C(=O)O)cc1)C(=O)O; C16 diacid = O=C(O)CCCCCCCCCCCCCCC(=O)*; NMeK = CN[C@@H](CCCCN)C(=O)O; Aib = CC(C)(N)C(=O)O; Sar = CNCC(=O)O

T1 sequence (P10912 with tags, fused parts or gaps limits assumed): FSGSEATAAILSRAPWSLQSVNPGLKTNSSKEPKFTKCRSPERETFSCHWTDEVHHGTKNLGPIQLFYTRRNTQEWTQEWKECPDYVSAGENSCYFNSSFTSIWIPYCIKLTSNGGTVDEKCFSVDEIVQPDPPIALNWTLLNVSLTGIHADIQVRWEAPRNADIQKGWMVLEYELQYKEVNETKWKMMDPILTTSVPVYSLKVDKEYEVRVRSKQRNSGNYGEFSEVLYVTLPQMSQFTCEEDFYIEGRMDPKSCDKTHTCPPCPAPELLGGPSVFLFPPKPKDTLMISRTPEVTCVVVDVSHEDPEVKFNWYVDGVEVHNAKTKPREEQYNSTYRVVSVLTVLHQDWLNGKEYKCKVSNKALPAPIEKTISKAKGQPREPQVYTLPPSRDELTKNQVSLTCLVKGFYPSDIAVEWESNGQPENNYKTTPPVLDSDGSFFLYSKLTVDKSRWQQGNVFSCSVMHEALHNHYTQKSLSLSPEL

For orientation: Kd means the free concentration of one partner at which half of the binding sites on the other are occupied at equilibrium, for simple one-to-one binding. Consider `CC(C)[C@@H]1NC(=O)[C@H](C(C)C)NC(=O)[C@@H]2CCCCNC(=O)Cn3cc(c4ccccc43)C[C@H](NC(=O)[C@H](CC(N)=O)NC(=O)[C@H](CO)NC1=O)C(=O)N[C@@H](Cc1ccc(C(=O)O)cc1)C(=O)N[C@@H](CCCCN)C(=O)N[C@@H](Cc1c[nH]c3ccc(O)cc13)C(=O)NC(C)(C)C(=O)N[C@@H](C(C)C)C(=O)N[C@H](C(=O)NCCCC[C@H](NC(=O)CC[C@H](NC(=O)CC[C@H](NC(=O)CCCc1ccc(I)cc1)C(=O)O)C(=O)O)C(N)=O)CSCC(=O)N[C@@H](Cc1ccc(C(=O)O)cc1)C(=O)N2C` [Compound 9] ({CH2CO}-[Phe(4-COOH)][NMeK]VVSN[Trp(1-CH2CO)][Phe(4-COOH)]K[Trp(5-OH)][Aib]VC-X10; lactam 2-7; thioether N-13), for which the Kd in test [1] was 1.46 nM.

With {CH2CO}-Y[NMeK]VVSN[Trp(1-CH2CO)]YK[Trp(5-OH)][Aib]VCG-NH2 (thioether N-13; lactam 2-7 via G, also called Compound No. 2) [GhR_PD_140], in test [2], the Kd was determined as 1.22 nM.

For the molecule {CH2CO}-Y[NMeK]VVSN[Trp(1-CH2CO)][Phe(4-COOH)]K[Trp(5-OH)][A4pipaa]VCK([Glu-Glu-C16 diacid])-NH2 (thioether N-13; lactam 2-7, also called Compound No. 23) [GhR_PD_239], the Kd in test [2] worked out at 2.29 nM.

B1: GhR_PD_139 (peptide)
peptide: {CH2CO}-Y[NMeK]VVSN[Trp(1-CH2CO)]YK[Trp(5-OH)][Aib]VCG-NH2
modifications: thioether N-13; lactam 2-7
SMILES: CC(C)[C@@H]1NC(=O)[C@H](C(C)C)NC(=O)[C@@H]2CCCCNC(=O)Cn3cc(c4ccccc43)C[C@H](NC(=O)[C@H](CC(N)=O)NC(=O)[C@H](CO)NC1=O)C(=O)N[C@@H](Cc1ccc(O)cc1)C(=O)N[C@@H](CCCCN)C(=O)N[C@@H](Cc1c[nH]c3ccc(O)cc13)C(=O)NC(C)(C)C(=O)N[C@@H](C(C)C)C(=O)N[C@H](C(=O)NCC(N)=O)CSCC(=O)N[C@@H](Cc1ccc(O)cc1)C(=O)N2C
notes: also called Compound No. 1
Regarding B1, the Kd in test [2] is 0.7 nM.

For {CH2CO}-Y[NMeK]VVSN[Trp(1-CH2CO)]YK[Trp(5-OH)][Aib]VCK([Glu-Glu-Butanoyl(4-(4-I-phenyl))])-NH2 (thioether N-13; lactam 2-7, also called Compound No. 32) [GhR_PD_246], the Kd in test [2] is 0.98 nM.

As for {CH2CO}-Y[NMeK]VVSN[Trp(1-CH2CO)]YK[Trp(5-OH)][A4pipaa]VCK([Glu-Glu-C16 diacid])-NH2 (thioether N-13; lactam 2-7, also called Compound No. 29) [GhR_PD_237], in test [2], the Kd was found to be 1.57 nM.

As for {CH2CO}-Y[NMeK]VVSN[Trp(1-CH2CO)]YK[Trp(5-OH)][Aib]VCG-NH2 (thioether N-13; lactam 2-7 via P, also called Compound No. 4) [GhR_PD_142], in test [2], the Kd was 1.07 nM.

Take {CH2CO}-Y[NMeK]VVSN[Trp(1-CH2CO)]Y[KCOpipzaa][Trp(5-OH)][Aib]VCK([Glu-Glu-C16 diacid])-NH2 (thioether N-13; lactam 2-7, also called Compound No. 27) [GhR_PD_234]: in test [2], the Kd amounted to 1.79 nM.

For the molecule {CH2CO}-Y[NMeK]VVSN[Trp(1-CH2CO)][Phe(4-COOH)]K[Trp(5-OH)][Aib]VCK([Glu-Glu-Butanoyl(4-(4-I-phenyl))])-NH2 (thioether N-13; lactam 2-7, also called Compound No. 26) [GhR_PD_216], in test [2], the Kd stood at 1.59 nM.

Consider {CH2CO}-[Phe(4-COOH)][NMeK]VVSN[Trp(1-CH2CO)]YK[Trp(5-OH)][Aib]VCK([Glu-Glu-C16 diacid])-NH2 (thioether N-13; lactam 2-7, also called Compound No. 19) [GhR_PD_231], for which the Kd in test [2] is 1.93 nM.

With {CH2CO}-[Phe(4-COOH)][NMeK]VVSN[Trp(1-CH2CO)]YK[Trp(5-OH)][Aib]VCK([Glu-Glu-Butanoyl(4-(4-I-phenyl))])-NH2 (thioether N-13; lactam 2-7, also called Compound No. 21) [GhR_PD_215], the Kd in test [2] is 1.07 nM.

As to {CH2CO}-Y[NMeK]VVSN[Trp(1-CH2CO)]YK[Trp(5-OH)][Aib]VCG-NH2 (thioether N-13; lactam 2-7 via Sar, also called Compound No. 3) [GhR_PD_141], the Kd in test [2] stood at 1.71 nM.

For {CH2CO}-[Phe(4-COOH)][NMeK]VVSN[Trp(1-CH2CO)]YK[Trp(5-OH)][A4pipaa]VCK([Glu-Glu-C16 diacid])-NH2 (thioether N-13; lactam 2-7, also called Compound No. 18) [GhR_PD_238], the Kd in test [2] was 2.4 nM.

{CH2CO}-Y[NMeK]VVSN[Trp(1-CH2CO)][Phe(4-COOH)]K[Trp(5-OH)][Aib]VCK([Glu-Glu-C16 diacid])-NH2 (thioether N-13; lactam 2-7, also called Compound No. 24) [GhR_PD_232]: the Kd in test [2] came out at 2.59 nM.

B2: GhR_PD_205 (peptide)
peptide: {CH2CO}-YKVVSN[Trp(5-OMe)]YK[Trp(5-OH)][A4pipaa]VC-NH2
modifications: thioether N-13; not fully specified (residue 2); also: albumin binder E-4IPhpCO, attachment site not given here
notes: No linker; also called Compound No. 45
Turning to B2, the Kd in test [2] stood at 3.36 nM.

(Values after patent publication US20250332264A1, “GhR-BINDING PEPTIDE AND COMPOSITION COMPRISING SAME” (priority 2021, published 2025).)
